# Results: patent US12630600B2 (MEDIMMUNE LIMITED, priority 2022, dated 2026)
# Starred links: 1 amine or outer side, 2 acyl side, 3 side chain; linkers in the order of their positions; H or OH if unused. Non-standard residues stand in square brackets, D forms with d. Groups on a side chain read outwards from the residue. Primed or numbered codes have the meaning given here. No end group written: not given here. *: point of attachment. PEG12 = NCCOCCOCCOCCOCCOCCOCCOCCOCCOCCOCCOCCOCCC(=O)O; C18 diacid = O=C(O)CCCCCCCCCCCCCCCCC(=O)*; PEG8 = NCCOCCOCCOCCOCCOCCOCCOCCOCCC(=O)O; Dip = N[C@H](C(=O)O)C(c1ccccc1)c1ccccc1; γGlu = O=C(O)[C@H](CCC(=O)[*:2])N[*:1]; Stearoyl = CCCCCCCCCCCCCCCCCC(=O)*; Palmitoyl = CCCCCCCCCCCCCCCC(=O)*; αMeF = C[C@](N)(Cc1ccccc1)C(=O)O; Myristoyl = CCCCCCCCCCCCCC(=O)*; (PEG)2 = polyethylene glycol 2; PEG2′ = polyethylene glycol 2; PEG4 = NCCOCCOCCOCCOCCC(=O)O; Dodecyl = CCCCCCCCCCCC*; AEEA = NCCOCCOCC(=O)O; Aib = CC(C)(N)C(=O)O
# B1: Peptide 6 (peptide)
# peptide: H[Aib]HGS[αMeF]TSDVSK[αMeF]LDSK([AEEA-AEEA-γGlu-C18 diacid])AAQD[αMeF]VEWIAN-NH2
# modifications: N-terminus assumed
# SMILES: CC[C@H](C)[C@H](NC(=O)[C@H](Cc1c[nH]c2ccccc12)NC(=O)[C@H](CCC(=O)O)NC(=O)[C@@H](NC(=O)[C@](C)(Cc1ccccc1)NC(=O)[C@H](CC(=O)O)NC(=O)[C@H](CCC(N)=O)NC(=O)[C@H](C)NC(=O)[C@H](C)NC(=O)[C@H](CCCCNC(=O)COCCOCCNC(=O)COCCOCCNC(=O)CC[C@H](NC(=O)CCCCCCCCCCCCCCCCC(=O)O)C(=O)O)NC(=O)[C@H](CO)NC(=O)[C@H](CC(=O)O)NC(=O)[C@H](CC(C)C)NC(=O)[C@](C)(Cc1ccccc1)NC(=O)[C@H](CCCCN)NC(=O)[C@H](CO)NC(=O)[C@@H](NC(=O)[C@H](CC(=O)O)NC(=O)[C@H](CO)NC(=O)[C@@H](NC(=O)[C@](C)(Cc1ccccc1)NC(=O)[C@H](CO)NC(=O)CNC(=O)[C@H](Cc1c[nH]cn1)NC(=O)C(C)(C)NC(=O)[C@@H](N)Cc1c[nH]cn1)[C@@H](C)O)C(C)C)C(C)C)C(=O)N[C@@H](C)C(=O)N[C@@H](CC(N)=O)C(N)=O
# B2: Peptide 5 (peptide)
# peptide: H[Aib]QGS[αMeF]TSDVSK[αMeF]LDSK([AEEA-AEEA-γGlu-γGlu-C18 diacid])AAQD[αMeF]VQ[Aib]IAN-NH2
# modifications: N-terminus assumed
# SMILES: CC[C@H](C)[C@H](NC(=O)C(C)(C)NC(=O)[C@H](CCC(N)=O)NC(=O)[C@@H](NC(=O)[C@](C)(Cc1ccccc1)NC(=O)[C@H](CC(=O)O)NC(=O)[C@H](CCC(N)=O)NC(=O)[C@H](C)NC(=O)[C@H](C)NC(=O)[C@H](CCCCNC(=O)COCCOCCNC(=O)COCCOCCNC(=O)CC[C@H](NC(=O)CC[C@H](NC(=O)CCCCCCCCCCCCCCCCC(=O)O)C(=O)O)C(=O)O)NC(=O)[C@H](CO)NC(=O)[C@H](CC(=O)O)NC(=O)[C@H](CC(C)C)NC(=O)[C@](C)(Cc1ccccc1)NC(=O)[C@H](CCCCN)NC(=O)[C@H](CO)NC(=O)[C@@H](NC(=O)[C@H](CC(=O)O)NC(=O)[C@H](CO)NC(=O)[C@@H](NC(=O)[C@](C)(Cc1ccccc1)NC(=O)[C@H](CO)NC(=O)CNC(=O)[C@H](CCC(N)=O)NC(=O)C(C)(C)NC(=O)[C@@H](N)Cc1c[nH]cn1)[C@@H](C)O)C(C)C)C(C)C)C(=O)N[C@@H](C)C(=O)N[C@@H](CC(N)=O)C(N)=O
# B3: Peptide 57 (peptide)
# peptide: HSQGS[αMeF]TSDVSK[Dip]LDSK([PEG8-γGlu-γGlu-Stearoyl])AAQD[αMeF]VE[Aib]IINT-NH2
# modifications: N-terminus assumed
# SMILES: CCCCCCCCCCCCCCCCCC(=O)N[C@@H](CCC(=O)N[C@@H](CCC(=O)NCCOCCOCCOCCOCCOCCOCCOCCOCCC(=O)NCCCC[C@H](NC(=O)[C@H](CO)NC(=O)[C@H](CC(=O)O)NC(=O)[C@H](CC(C)C)NC(=O)[C@@H](NC(=O)[C@H](CCCCN)NC(=O)[C@H](CO)NC(=O)[C@@H](NC(=O)[C@H](CC(=O)O)NC(=O)[C@H](CO)NC(=O)[C@@H](NC(=O)[C@](C)(Cc1ccccc1)NC(=O)[C@H](CO)NC(=O)CNC(=O)[C@H](CCC(N)=O)NC(=O)[C@H](CO)NC(=O)[C@@H](N)Cc1c[nH]cn1)[C@@H](C)O)C(C)C)C(c1ccccc1)c1ccccc1)C(=O)N[C@@H](C)C(=O)N[C@@H](C)C(=O)N[C@@H](CCC(N)=O)C(=O)N[C@@H](CC(=O)O)C(=O)N[C@@](C)(Cc1ccccc1)C(=O)N[C@H](C(=O)N[C@@H](CCC(=O)O)C(=O)NC(C)(C)C(=O)N[C@H](C(=O)N[C@H](C(=O)N[C@@H](CC(N)=O)C(=O)N[C@H](C(N)=O)[C@@H](C)O)[C@@H](C)CC)[C@@H](C)CC)C(C)C)C(=O)O)C(=O)O
# B4: Peptide 7 (peptide)
# peptide: H[Aib]HGS[αMeF]TSDVSK[αMeF]LDSK([γGlu-C18 diacid])AAQD[αMeF]VEWIANT-NH2
# modifications: N-terminus assumed
# SMILES: CC[C@H](C)[C@H](NC(=O)[C@H](Cc1c[nH]c2ccccc12)NC(=O)[C@H](CCC(=O)O)NC(=O)[C@@H](NC(=O)[C@](C)(Cc1ccccc1)NC(=O)[C@H](CC(=O)O)NC(=O)[C@H](CCC(N)=O)NC(=O)[C@H](C)NC(=O)[C@H](C)NC(=O)[C@H](CCCCNC(=O)CC[C@H](NC(=O)CCCCCCCCCCCCCCCCC(=O)O)C(=O)O)NC(=O)[C@H](CO)NC(=O)[C@H](CC(=O)O)NC(=O)[C@H](CC(C)C)NC(=O)[C@](C)(Cc1ccccc1)NC(=O)[C@H](CCCCN)NC(=O)[C@H](CO)NC(=O)[C@@H](NC(=O)[C@H](CC(=O)O)NC(=O)[C@H](CO)NC(=O)[C@@H](NC(=O)[C@](C)(Cc1ccccc1)NC(=O)[C@H](CO)NC(=O)CNC(=O)[C@H](Cc1c[nH]cn1)NC(=O)C(C)(C)NC(=O)[C@@H](N)Cc1c[nH]cn1)[C@@H](C)O)C(C)C)C(C)C)C(=O)N[C@@H](C)C(=O)N[C@@H](CC(N)=O)C(=O)N[C@H](C(N)=O)[C@@H](C)O
# B5: Peptide 56 (peptide)
# peptide: HSQGS[αMeF]TSDVSK[Dip]LDSK([PEG4-γGlu-γGlu-Stearoyl])AAQD[αMeF]VE[Aib]IINT-NH2
# modifications: N-terminus assumed
# SMILES: CCCCCCCCCCCCCCCCCC(=O)N[C@@H](CCC(=O)N[C@@H](CCC(=O)NCCOCCOCCOCCOCCC(=O)NCCCC[C@H](NC(=O)[C@H](CO)NC(=O)[C@H](CC(=O)O)NC(=O)[C@H](CC(C)C)NC(=O)[C@@H](NC(=O)[C@H](CCCCN)NC(=O)[C@H](CO)NC(=O)[C@@H](NC(=O)[C@H](CC(=O)O)NC(=O)[C@H](CO)NC(=O)[C@@H](NC(=O)[C@](C)(Cc1ccccc1)NC(=O)[C@H](CO)NC(=O)CNC(=O)[C@H](CCC(N)=O)NC(=O)[C@H](CO)NC(=O)[C@@H](N)Cc1c[nH]cn1)[C@@H](C)O)C(C)C)C(c1ccccc1)c1ccccc1)C(=O)N[C@@H](C)C(=O)N[C@@H](C)C(=O)N[C@@H](CCC(N)=O)C(=O)N[C@@H](CC(=O)O)C(=O)N[C@@](C)(Cc1ccccc1)C(=O)N[C@H](C(=O)N[C@@H](CCC(=O)O)C(=O)NC(C)(C)C(=O)N[C@H](C(=O)N[C@H](C(=O)N[C@@H](CC(N)=O)C(=O)N[C@H](C(N)=O)[C@@H](C)O)[C@@H](C)CC)[C@@H](C)CC)C(C)C)C(=O)O)C(=O)O
# B6: Peptide 58 (peptide)
# peptide: HSQGS[αMeF]TSDVSK[Dip]LDSK([PEG12-γGlu-γGlu-Stearoyl])AAQD[αMeF]VE[Aib]IINT-NH2
# modifications: N-terminus assumed
# SMILES: CCCCCCCCCCCCCCCCCC(=O)N[C@@H](CCC(=O)N[C@@H](CCC(=O)NCCOCCOCCOCCOCCOCCOCCOCCOCCOCCOCCOCCOCCC(=O)NCCCC[C@H](NC(=O)[C@H](CO)NC(=O)[C@H](CC(=O)O)NC(=O)[C@H](CC(C)C)NC(=O)[C@@H](NC(=O)[C@H](CCCCN)NC(=O)[C@H](CO)NC(=O)[C@@H](NC(=O)[C@H](CC(=O)O)NC(=O)[C@H](CO)NC(=O)[C@@H](NC(=O)[C@](C)(Cc1ccccc1)NC(=O)[C@H](CO)NC(=O)CNC(=O)[C@H](CCC(N)=O)NC(=O)[C@H](CO)NC(=O)[C@@H](N)Cc1c[nH]cn1)[C@@H](C)O)C(C)C)C(c1ccccc1)c1ccccc1)C(=O)N[C@@H](C)C(=O)N[C@@H](C)C(=O)N[C@@H](CCC(N)=O)C(=O)N[C@@H](CC(=O)O)C(=O)N[C@@](C)(Cc1ccccc1)C(=O)N[C@H](C(=O)N[C@@H](CCC(=O)O)C(=O)NC(C)(C)C(=O)N[C@H](C(=O)N[C@H](C(=O)N[C@@H](CC(N)=O)C(=O)N[C@H](C(N)=O)[C@@H](C)O)[C@@H](C)CC)[C@@H](C)CC)C(C)C)C(=O)O)C(=O)O
# Molecular target: human GLP-1 receptor (human, UniProt P43220)
# Experiment: cell-based or functional assay
row,"cAMP production, hGLP-1R EC50 (pM)",Binder
1,4.12 pM,HSQGS[αMeF]TSDVSK[Dip]LDSK([(PEG)2-γGlu-(PEG)2-γGlu-Stearoyl])AAQD[αMeF]VE[Aib]IINT-NH2 [Peptide 61]
2,18.8 pM,HSQGS[αMeF]TSDVSK[Dip]LDSK([(PEG)2-(PEG)2-γGlu-γGlu-Stearoyl])AAQD[αMeF]VQ[Dip]LEA-NH2 [Peptide 55]
3,3.14 pM,HSQGS[αMeF]TSDVSK[Dip]LDSK([(PEG)2-(PEG)2-γGlu-γGlu-Myristoyl])AAQD[αMeF]VE[Aib]IINT-NH2 [Peptide 63]
4,568 pM,B1
5,48 pM,H[Aib]QGTFTSDVSK[αMeF]LDSK([AEEA-AEEA-γGlu-C18 diacid])RARDFVRWLL[Aib]TE-OH (also: αMePhe at 23 (V)) [Peptide 166]
6,283 pM,B2
7,5.16 pM,HSQGS[αMeF]TSDVSK[Dip]LDSK([γGlu-(PEG)2-γGlu-(PEG)2-Stearoyl])AAQD[αMeF]VE[Aib]IINT-NH2 [Peptide 60]
8,9.09 pM,B3
9,84.6 pM,B4
10,2.57 pM,HSQGS[αMeF]TSDVSK[Dip]LDSK([PEG2′-PEG2′-γGlu-γGlu-Palmitoyl])AAQD[αMeF]VE[Aib]IINT-NH2 [Peptide 64]
11,4.86 pM,B5
12,6.18 pM,HSQGS[αMeF]TSDVSK[Dip]LDSK([γGlu-γGlu-(PEG)2-(PEG)2-Stearoyl])AAQD[αMeF]VE[Aib]IINT-NH2 [Peptide 59]
13,10.1 pM,HSQGS[αMeF]TSDVSK[Dip]LDSK([(PEG)2-(PEG)2-γGlu-γGlu-Dodecyl])AAQD[αMeF]VE[Aib]IINT-NH2 [Peptide 62]
14,3.9 pM,B6

# Molecular target: human glucagon receptor (human, UniProt P47871)
# Experiment: cell-based or functional assay
row,"cAMP production, hGluc-R EC50 (pM)",Binder
1,9.55 pM,HSQGS[αMeF]TSDVSK[Dip]LDSK([(PEG)2-γGlu-(PEG)2-γGlu-Stearoyl])AAQD[αMeF]VE[Aib]IINT-NH2 [Peptide 61]
2,19.1 pM,HSQGS[αMeF]TSDVSK[Dip]LDSK([(PEG)2-(PEG)2-γGlu-γGlu-Stearoyl])AAQD[αMeF]VQ[Dip]LEA-NH2 [Peptide 55]
3,2.49 pM,HSQGS[αMeF]TSDVSK[Dip]LDSK([(PEG)2-(PEG)2-γGlu-γGlu-Myristoyl])AAQD[αMeF]VE[Aib]IINT-NH2 [Peptide 63]
4,516 pM,B1
5,270 pM,H[Aib]QGTFTSDVSK[αMeF]LDSK([AEEA-AEEA-γGlu-C18 diacid])RARDFVRWLL[Aib]TE-OH (also: αMePhe at 23 (V)) [Peptide 166]
6,7140 pM,B2
7,21.1 pM,HSQGS[αMeF]TSDVSK[Dip]LDSK([γGlu-(PEG)2-γGlu-(PEG)2-Stearoyl])AAQD[αMeF]VE[Aib]IINT-NH2 [Peptide 60]
8,16.9 pM,B3
9,30.7 pM,B4
10,3.06 pM,HSQGS[αMeF]TSDVSK[Dip]LDSK([PEG2′-PEG2′-γGlu-γGlu-Palmitoyl])AAQD[αMeF]VE[Aib]IINT-NH2 [Peptide 64]
11,10.9 pM,B5
12,28.4 pM,HSQGS[αMeF]TSDVSK[Dip]LDSK([γGlu-γGlu-(PEG)2-(PEG)2-Stearoyl])AAQD[αMeF]VE[Aib]IINT-NH2 [Peptide 59]
13,15.2 pM,HSQGS[αMeF]TSDVSK[Dip]LDSK([(PEG)2-(PEG)2-γGlu-γGlu-Dodecyl])AAQD[αMeF]VE[Aib]IINT-NH2 [Peptide 62]
14,11.3 pM,B6
